This note sets out measurements from patent publication US20150031112A1 (SHIRE HUMAN GENETIC THERAPIES, published 2015).

This series deals with the molecule itself. Put plainly: X-ray crystallography, crystallographic symmetry applied (self-association, homotrimer).

B1: NAGLU-kif (recombinant human alpha-N-acetylglucosaminidase expressed in HT1080 cells treated with kifunensine) (enzyme)
chain: DEAREAAAVRALVARLLGPGPAADFSVSVERALAAKPGLDTYSLGGGGAARVRVRGSTGVAAAAGLHRYLRDFCGCHVAWSGSQLRLPRPLPAVPGELTEATPNRYRYYQNVCTQSYSFVWWDWARWEREIDWMALNGINLALAWSGQEAIWQRVYLALGLTQAEINEFFTGPAFLAWGRMGNLHTWDGPLPPSWHIKQLYLQHRVLDQMRSFGMTPVLPAFAGHVPEAVTRVFPQVNVTKMGSWGHFNCSYSCSFLLAPEDPIFPIIGSLFLRELIKEFGTDHIYGADTFNEMQPPSSEPSYLAAATTAVYEAMTAVDTEAVWLLQGWLFQHQPQFWGPAQIRAVLGAVPRGRLLVLDLFAESQPVYTRTASFQGQPFIWCMLHNFGGNHGLFGALEAVNGGPEAARLFPNSTMVGTGMAPEGISQNEVVYSLMAELGWRKDPVPDLAAWVTSFAARRYGVSHPDAGAAWRLLLRSVYNCSGEACRGHNRSPLVRRPSLQMNTSIWYNRSDVFEAWRLLLTSAPSLATSPAFRYDLLDLTRQAVQELVSLYYEEARSAYLSKELASLLRAGGVLAYELLPALDEVLASDSRFLLGSWLEQARAAAVSEAEADFYEQNSRYQLTLWGPEGNILDYANKQLAGLVANYYTPRWRLFLEALVDSVAQGIPFQQHQFDKNVFQLEQAFVLSKQRYPSQPRGDTVDLAKKIFLKYYPRWVAGSW
modifications: N-linked high mannose glycans at N261, N272, N435, N503, N526 and N532 (numbered as amino acids 24-743)
notes: There is one molecule in the asymmetric unit, and the trimer is generated by crystallographic symmetry; also called NAGLU24-743; Naglu-kif R3
Regarding B1, the binding result was “binds”.
